Laboratory results from IntAct's records for PubMed 19415799.

B1: Cell division protein FtsZ (Escherichia coli (strain K12)), P0A9A6 (parent)
chain: MFEPMELTNDAVIKVIGVGGGGGNAVEHMVRERIEGVEFFAVNTDAQALRKTAVGQTIQIGSGITKGLGAGANPEVGRNAADEDRDALRAALEGADMVFIAAGMGGGTGTGAAPVVAEVAKDLGILTVAVVTKPFNFEGKKRMAFAEQGITELSKHVDSLITIPNDKLLKVLGRGISLLDAFGAANDVLKGAVQGIAELITRPGLMNVDFADVRTVMSEMGYAMMGSGVASGEDRAEEAAEMAISSPLLEDIDLSGARGVLVNITAGFDLRLDEFETVGNTIRAFASDNATVVIGTSLDPDMNDELRVTVVATGIGMDKRPEITLVTNKQVQQPVMDRYQQHGMAPLTQEQKPVAKVVNDNAPQTAKEPDYLDIPAFLRKQAD
partner: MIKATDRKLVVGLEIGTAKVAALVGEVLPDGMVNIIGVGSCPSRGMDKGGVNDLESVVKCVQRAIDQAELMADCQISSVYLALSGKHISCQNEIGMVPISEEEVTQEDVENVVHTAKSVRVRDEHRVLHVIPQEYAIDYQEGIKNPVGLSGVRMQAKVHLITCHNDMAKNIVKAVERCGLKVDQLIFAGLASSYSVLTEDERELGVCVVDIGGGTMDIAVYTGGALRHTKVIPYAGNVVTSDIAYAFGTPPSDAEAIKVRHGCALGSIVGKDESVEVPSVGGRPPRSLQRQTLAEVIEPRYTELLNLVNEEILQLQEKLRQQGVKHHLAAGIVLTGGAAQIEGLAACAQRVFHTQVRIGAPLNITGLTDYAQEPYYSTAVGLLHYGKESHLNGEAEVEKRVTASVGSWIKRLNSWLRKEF

Variants of: B1
Details: with ftsa_ecoli ftsA

| effect of a mutation on the interaction | Variant |
| --- | --- |
| decreasing interaction strength | I374V |
